According to paper PMC3534021, “Structure of the TPR Domain of AIP: Lack of Client Protein Interaction with the C-Terminal α-7 Helix of the TPR Domain of AIP Is Sufficient for Pituitary Adenoma Predisposition” (PLoS ONE, 2012):
Where “and” joins values, the source holds several entries; their conditions need not be identical. Equal entries are not always repeated.

T1: TPR domain of human AIP, R304Q (disease-associated missense mutation) (human)
T1 sequence (O00170 166-330 with R304Q, looked up): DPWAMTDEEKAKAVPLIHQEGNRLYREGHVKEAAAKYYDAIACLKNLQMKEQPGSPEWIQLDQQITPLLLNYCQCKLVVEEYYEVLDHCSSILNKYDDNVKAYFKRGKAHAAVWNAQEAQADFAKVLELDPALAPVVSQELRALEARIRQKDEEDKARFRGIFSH

B1: TPR domain (residues 166–330) of human AIP (aryl hydrocarbon receptor interacting protein), wild type (domain or fragment, UniProt O00170 166-330, looked up)
chain: DPWAMTDEEKAKAVPLIHQEGNRLYREGHVKEAAAKYYDAIACLKNLQMKEQPGSPEWIQLDQQITPLLLNYCQCKLVVEEYYEVLDHCSSILNKYDDNVKAYFKRGKAHAAVWNAQEAQADFAKVLELDPALAPVVSRELRALEARIRQKDEEDKARFRGIFSH
notes: Residues Asp 172 to Arg 325 were visible in the TOMM20 peptide structure; also called AIP TPR-domain; WT

Key:
[1] = target: T1, TPR domain of human AIP, R304Q (disease-associated missense mutation) (human); assay: ITC; twenty 1.9 µL aliquots of peptide (350 to 600 µM) injected into 30 µM AIP TPR-domain; 20 mM Tris pH 7.5, 5 mM NaCl, 30°C
[2] = target: TPR domain of human AIP, R304A mutant (human); assay: as above
[3] = target: B1; assay: as above; settings: both partners purified
[4] = target: T2, full-length human HSP90β (human, UniProt P08238 1-724); assay: ITC; twenty 1.9 µL aliquots of AIP TPR-domain at 350 µM injected into 30 µM human HSP90β; 20 mM Tris pH 7.5, 5 mM NaCl, 30°C; settings: both partners purified
T2 construct: HSP90β, human, full length; also called FL-hHSP90β; intact HSP90
T2 sequence (P08238 whole entry): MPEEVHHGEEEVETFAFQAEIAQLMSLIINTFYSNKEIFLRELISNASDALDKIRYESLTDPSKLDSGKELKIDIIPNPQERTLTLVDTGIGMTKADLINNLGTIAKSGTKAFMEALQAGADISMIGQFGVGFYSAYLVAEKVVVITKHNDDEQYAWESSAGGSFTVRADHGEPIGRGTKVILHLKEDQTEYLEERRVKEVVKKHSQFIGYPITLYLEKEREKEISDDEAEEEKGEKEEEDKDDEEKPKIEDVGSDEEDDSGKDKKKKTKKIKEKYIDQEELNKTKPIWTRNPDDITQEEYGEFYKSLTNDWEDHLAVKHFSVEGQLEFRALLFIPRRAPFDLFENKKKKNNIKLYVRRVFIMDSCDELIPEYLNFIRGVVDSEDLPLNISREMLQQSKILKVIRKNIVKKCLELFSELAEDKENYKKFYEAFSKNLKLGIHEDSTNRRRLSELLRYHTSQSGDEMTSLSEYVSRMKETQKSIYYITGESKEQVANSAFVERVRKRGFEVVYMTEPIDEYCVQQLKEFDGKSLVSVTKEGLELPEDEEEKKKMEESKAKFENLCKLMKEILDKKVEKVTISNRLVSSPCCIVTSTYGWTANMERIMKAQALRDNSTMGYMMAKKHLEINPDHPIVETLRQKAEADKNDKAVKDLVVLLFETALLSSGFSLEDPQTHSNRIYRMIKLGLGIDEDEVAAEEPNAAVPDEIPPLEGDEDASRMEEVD

[5] = target: T2, full-length human HSP90β; assay: as above; settings: both partners purified; remark: listed apart in the source
[6] = test system: HSP90; assay: HSP90 ATPase assay; format: biochemical; settings: 20-fold molar excess of full-length AIP

| Molecule | Kd [1] [µM] | dH [1] [kcal/mol] | stoichiometry N [1] | Kd [2] [µM] | dH [2] [kcal/mol] | stoichiometry N [2] | Kd [3] | dH [3] | stoichiometry N [3] | stoichiometry N [4] | Kd [5] [µM] | dH [5] [kcal/mol] | stoichiometry N [5] | Effect on the ATPase activity of HSP90 [6] |
| --- | --- | --- | --- | --- | --- | --- | --- | --- | --- | --- | --- | --- | --- | --- |
| EDASRMEEVD (extreme C-terminus of human HSP90β; Only SRMEEVD was visible in the crystal structure) [EDASRMEEVD peptide (human HSP90β C-terminus)] | 16.2 | -6.42 | 0.98 | 15.6 | -6.44 | 0.96 | 18.6 µM and 14.4 µM | -5.04 kcal/mol and -3.92 kcal/mol | 1.2 and 1.1 |  |  |  |  |  |
| GSGPTIEEVD (C-terminus of human HSP70; also called HSP70 peptide) [GSGPTIEEVD peptide (human HSP70 C-terminus)] | 31.1 | -5.5 | 0.84 | 22.8 | -5.46 | 0.66 | 18.1 ± 1.9 µM | -6.35 kcal/mol | 0.63 |  |  |  |  |  |
| AQSLAEDDVE (extreme C-terminus of human TOMM20; Only AEDDVE was visible in the crystal structure) [AQSLAEDDVE peptide (human TOMM20 C-terminus)] | 22.5 | -6.07 | 0.66 | 16.6 | -4.51 | 0.69 | 12.3 ± 0.5 µM | -6.77 kcal/mol | 0.87 |  |  |  |  |  |
| B1 |  |  |  |  |  |  |  |  |  | 0.5 | 13.3 ± 1.8 | -4.55 | 0.3 |  |
| MEEVD (extreme C-terminal five residues of HSP90; also called MEEVD (HSP90)) [MEEVD peptide (HSP90)] |  |  |  |  |  |  | 12.6 ± 1.6 µM | -4.14 kcal/mol | 1 |  |  |  |  |  |
| DDTSRMEEVD (extreme C-terminus of human HSP90α) [DDTSRMEEVD peptide (human HSP90α C-terminus)] |  |  |  |  |  |  | 9.5 ± 0.6 µM | -3.53 kcal/mol | 1.2 |  |  |  |  |  |
| TLEELDW (also called TLEELDW (hPDE4A5); PDE4A5 peptide) [TLEELDW peptide (PDE4A5)] |  |  |  |  |  |  | 64.5 ± 3.2 µM | -4.42 kcal/mol | 0.89 |  |  |  |  |  |
| full-length AIP: full-length aryl hydrocarbon receptor interacting protein, tested on HSP90 ATPase activity (protein, UniProt O00170 1-330, looked up, full-length) MADIIARLREDGIQKRVIQEGRGELPDFQDGTKATFHYRTLHSDDEGTVLDDSRARGKPMELIIGKKFKLPVWETIVCTMREGEIAQFLCDIKHVVLYPLVAKSLRNIAVGKDPLEGQRHCCGVAQMREHSSLGHADLDALQQNPQPLIFHMEMLKVESPGTYQQDPWAMTDEEKAKAVPLIHQEGNRLYREGHVKEAAAKYYDAIACLKNLQMKEQPGSPEWIQLDQQITPLLLNYCQCKLVVEEYYEVLDHCSSILNKYDDNVKAYFKRGKAHAAVWNAQEAQADFAKVLELDPALAPVVSRELRALEARIRQKDEEDKARFRGIFSH |  |  |  |  |  |  |  |  |  |  |  |  |  | did not influence |
